{
  "source": "patent US7803377B2",
  "about": "“Anti-DLL4 antibodies and methods using same” (Genentech, Inc., priority 2006, dated 2010)",
  "key": {"human Delta4 (ECD5.5)": {"target": "T1, human Delta4 (ECD5.5) (Homo sapiens, UniProt Q9NR61)", "T1 construct": "DLL4-His (C-terminal His-tagged human DLL4, amino acid 1-404); His (C)", "T1 sequence (Q9NR61 27-404)": "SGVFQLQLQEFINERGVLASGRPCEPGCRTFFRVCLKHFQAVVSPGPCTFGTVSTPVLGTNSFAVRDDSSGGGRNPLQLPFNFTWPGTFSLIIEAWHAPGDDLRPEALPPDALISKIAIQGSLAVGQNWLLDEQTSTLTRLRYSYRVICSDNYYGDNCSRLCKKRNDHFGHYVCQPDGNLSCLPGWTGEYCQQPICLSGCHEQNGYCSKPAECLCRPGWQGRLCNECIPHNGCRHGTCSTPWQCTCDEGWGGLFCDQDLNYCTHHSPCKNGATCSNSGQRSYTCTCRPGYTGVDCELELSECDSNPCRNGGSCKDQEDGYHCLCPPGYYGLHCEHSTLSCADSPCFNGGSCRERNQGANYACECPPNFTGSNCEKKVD", "assay": "Surface plasmon resonance (BIAcore-3000) binding affinity and kinetics", "settings": "human DLL4-His; Kd calculated as koff/kon; listed as YW26.81", "method": "(§1) To determine the binding affinity of the anti-DLL4 Mabs, surface plasmon resonance (SRP) measurement with a BIAcore™-3000 was used (BIAcore, Inc., Piscataway, N.J.). Briefly, carboxymethylated dextran biosensor chips (CM5, BIAcore Inc.) were activated with N-ethyl-N′-(3-dimethylaminopropyl)-carbodiimide hydrochloride (EDC) and N-hydroxysuccinimide (NHS) according to the supplier's instructions. Anti-DLL4 antibody was diluted with 10 mM sodium acetate, pH 4.8, into 5 μg/ml before injection at a flow rate of 5 μl/minute to achieve approximately 500 response units (RU) of coupled antibody. Next, IM ethanolamine was injected to block unreacted groups. For kinetics measurements, two-fold serial dilutions of either human or murine DLL4-His molecules (0.7 nM to 500 nM) were injected in PBS with 0.05% Tween™ 20 at 25° C. at a flow rate of 25 μl/min. Association rates (kon) and dissociation rates (koff) were calculated using a simple one-to-one Langmuir binding model (BIAcore Evaluation Software version 3.2). The equilibrium dissociation constant (Kd) was calculated as the ratio koff/kon."}, "murine Delta4 (ECD5.5)": {"target": "T2, murine Delta4 (ECD5.5) (Mus musculus, UniProt Q9JI71)", "T2 construct": "murine Delta4 (ECD5.5); His", "T2 sequence (Q9JI71 27-405 limits assumed)": "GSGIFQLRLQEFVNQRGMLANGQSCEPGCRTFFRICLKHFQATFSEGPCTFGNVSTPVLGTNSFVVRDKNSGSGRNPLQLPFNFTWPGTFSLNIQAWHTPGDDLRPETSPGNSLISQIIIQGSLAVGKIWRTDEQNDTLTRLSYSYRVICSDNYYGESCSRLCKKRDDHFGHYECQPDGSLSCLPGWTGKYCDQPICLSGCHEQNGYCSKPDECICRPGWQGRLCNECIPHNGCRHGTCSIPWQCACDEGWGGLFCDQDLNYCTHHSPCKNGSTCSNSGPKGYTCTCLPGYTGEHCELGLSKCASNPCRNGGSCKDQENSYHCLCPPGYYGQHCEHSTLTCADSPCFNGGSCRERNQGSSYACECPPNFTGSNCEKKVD", "assay": "Surface plasmon resonance (BIAcore-3000) binding affinity and kinetics", "settings": "murine DLL4-His; Kd calculated as koff/kon", "method": "as §1"}, "DLL1": {"target": "T3, DLL1 (Homo sapiens, UniProt O00548)", "T3 sequence (O00548 18-723)": "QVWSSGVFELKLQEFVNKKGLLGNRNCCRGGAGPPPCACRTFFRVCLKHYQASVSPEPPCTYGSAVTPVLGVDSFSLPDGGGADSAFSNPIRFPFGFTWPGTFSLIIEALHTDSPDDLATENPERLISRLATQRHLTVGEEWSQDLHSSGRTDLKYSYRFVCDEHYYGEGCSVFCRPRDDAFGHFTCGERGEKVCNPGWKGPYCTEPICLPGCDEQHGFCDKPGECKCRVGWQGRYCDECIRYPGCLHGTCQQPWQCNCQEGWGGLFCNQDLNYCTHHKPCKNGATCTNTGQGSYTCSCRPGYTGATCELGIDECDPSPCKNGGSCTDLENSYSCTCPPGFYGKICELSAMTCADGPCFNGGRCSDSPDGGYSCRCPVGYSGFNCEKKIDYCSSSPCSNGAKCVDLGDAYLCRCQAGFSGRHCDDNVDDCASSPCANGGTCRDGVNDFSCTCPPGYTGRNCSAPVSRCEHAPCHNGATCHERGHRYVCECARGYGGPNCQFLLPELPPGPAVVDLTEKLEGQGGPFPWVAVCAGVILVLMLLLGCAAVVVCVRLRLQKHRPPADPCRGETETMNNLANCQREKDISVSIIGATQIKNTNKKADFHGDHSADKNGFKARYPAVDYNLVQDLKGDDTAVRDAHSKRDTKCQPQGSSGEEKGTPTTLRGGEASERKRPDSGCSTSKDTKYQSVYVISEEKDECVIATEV", "assay": "ELISA binding to coated purified recombinant proteins", "settings": "plates coated with recombinant protein 1 μg/ml", "method": "(§2) 96-well Nunc Maxisorp plates were coated with purified recombinant proteins as indicated (1 μg/ml). […] Bound antibodies were detected with anti-human antibody HRP conjugate using TMB as substrate and OD 450 nm absorbance measurement. Anti-HER2 and recombinant ErbB2-ECD were used as assay control (FIG. 11b)."}, "Jag1": {"target": "Jag1 (Homo sapiens, UniProt P78504)", "assay": "ELISA binding to coated purified recombinant proteins", "settings": "plates coated with recombinant protein 1 μg/ml", "method": "as §2"}, "VEGFR2": {"test_system": "VEGFR2", "assay": "Real-time quantitative RT-PCR of VEGFR2 expression in HUVECs", "type": "cell-based, human", "settings": "3-D fibrin gel culture of HUVECs (7 d); anti-DLL4 antibody 5 μg/ml, DBZ 0.08 μM", "method": "RNA extraction and Real-time quantitative RT-PCR. Extraction of total RNA from HUVECs in 2-D culture was done using RNeasy® Mini Kit (Qiagen) as per instructions of the manufacturer. To extract total RNA from HUVECs growing in fibrin gels, fibrin gels were treated with 10× trypsin-EDTA (Gibco) for 5 min to remove the top layer fibroblasts, followed by neutralization with 10% FBS in PBS. The gel clots were then removed from tissue culture wells and subjected to centrifugation (10K for 5 min) in microtubes to remove excessive fluid. The resulting gel “pellets” were lysed with lysis buffer (RNeasy® Mini Kit), and further processed as with HUVECs in 2-D culture. The quality of RNA was assessed using RNA 6000 Nano Chips and the Agilent 2100 Bioanalyzer (Agilent Technologies). Real-time quantitative RT-PCR reactions were done in triplicate using 7500 Real Time PCR System (Applied Biosystems). Human GAPDH was used as reference gene for normalization. The expression levels are expressed as the mean (±SEM) fold mRNA changes relative to control from 3 separate determinations. The forward and reverse primer and probe sequences for VEGFR2, TGFβ2 and GAPDH were as follows.\nTherefore, while VEGF can act upstream of DLL4/Notch pathway, DLL4/Notch is capable of fine-tuning the response through negatively regulating VEGFR2 expression."}, "EL4 mouse lymphoma tumor": {"test_system": "EL4 mouse lymphoma tumor", "assay": "Tumor vascular labeling and immunohistochemistry (EL4 tumors)", "type": "in vivo", "method": "Tumor vascular labeling and immunohistochemistry. Mice were anesthetized with Isoflurane. FITC-labeled Lycopersicon esculentum Lectin (150 μg in 150 μl of 0.9% NaCl; Vector Laboratories) was injected i.v. and allowed to circulate for 5 min before systemic perfusion. The vasculature was perfused transcardially with 1% PFA in PBS for 3 min. Tumors were removed and post fixed by immersion in the same fixative for 2 hr, followed by an incubation in 30% sucrose overnight for cryoprotection, then embedded in OCT. Sections (4 μm thickness) were stained with anti-mouse CD31 (1:50, BD Pharmingen), followed by Alexa 594 goat anti-rat IgG (1:800, Molecular Probes).\nIn light of the tumor growth inhibition, we used the EL4 mouse lymphoma tumor model for vascular histology studies.\nSince in vitro blocking of DLL4/Notch pathway impaired the formation of lumen-like structure by ECs (FIG. 8a), it was investigated whether treatment with anti-DLL4 Mab caused similar defect in the tumor vasculature and affected efficient blood flow. […] Given the critical role of DLL4/Notch signaling in AV differentiation, both in embryos and early postnatal retinas, anti-DLL4 Mab could impact cell fate specification of tumor ECs and cause defective directional blood flow. […] Further studies utilizing vascular imaging techniques are needed to gain insights into the precise vascular defects."}, "[1]": {"assay": "Tolerability in tumor-bearing mice", "type": "in vivo, mouse", "settings": "10 mg/kg twice per week for up to 8 weeks", "from_the_text": "Thus, DLL4/Notch signaling is critical during active angiogenesis, but plays a less important role in normal vessel maintenance."}},
  "data": [
    {"substance": "YW26.82: affinity matured anti-DLL4 monoclonal antibody; HVR-H1/H2/H3 SEQ ID NO:1, 8, 9; HVR-L1/L2/L3 SEQ ID NO:10, 11, 18", "values": [
      {"measurement": "Kd", "setting": "human Delta4 (ECD5.5)", "value": 0.1, "unit": "nM"},
      {"measurement": "Kd", "setting": "murine Delta4 (ECD5.5)", "value": 0.09, "unit": "nM"},
      {"measurement": "binding by ELISA", "setting": "DLL1", "value": "did not delectably bind"},
      {"measurement": "binding by ELISA", "setting": "Jag1", "value": "did not delectably bind"},
      {"measurement": "VEGFR2 expression on Notch blockade", "setting": "VEGFR2", "value": "upregulation of VEGFR2"},
      {"measurement": "endothelial cell density (anti-CD31) in tumor sections", "setting": "EL4 mouse lymphoma tumor; EL4 tumors", "value": "dramatic increase in endothelial cell density"},
      {"measurement": "FITC-lectin labeling of tumor vessels (vascular perfusion)", "setting": "EL4 mouse lymphoma tumor; systemic perfusion with FITC-lectin, EL4 tumor sections", "value": "marked reduction of lectin labeling of tumor vessels"},
      {"measurement": "weight loss or animal death", "setting": "[1]", "value": "no apparent weight loss or animal death"}
    ]}
  ]
}
